This data set in a line: self-splicing fitness, log relative to wild type (ln ratio); higher = more splicing; Tetrahymena group I intron in knt gene, E. coli kanamycin selection, DiMSum; sequences stand for … in CUCUCU…GGAGGGAAAAGUUAUCAGGCAUGCACCUGGUAGCUAGUCUUUAAACCAAUAGAUUGCAUCGGUUUAAAAGGCAAGACCGUCAAAUUGCGGGAAAGGGGUCAACAGCCGUUCAGUACCAAGUCUCAGGGGAAACUUUGAGAUGGCCUUGCAAAGGGUAUGGUAAUAAGCUGACGGACAUGGUCCUAACCACGCAGCCAAGUCCUAAGUCAACAGAUCUUCUGUUGAUAUGGAUGCAGUUCACAGACUAAAUGUCGGUCGGGGAAGAUGUAUUCUUCUCAUAAGAUAUAGUCGGACCUCUCCUUAAUGGGAGCUAGCGGAUGAAGUGAUGCAACACUGGAGCCGCUGGGAACUAAUUUGUAUGCGAAAGUAUAUUGAUUAGUUUUGGAGUACUCGUGGUCG
A digest of the protocol:
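DiMSum derived fitness as the error-weighted combination of fold changes across replicates, kanamycin versus no kanamycin, normalised to wild type. E. coli BL21(DE3) held the library, which randomised all eight P1ex-region intron nucleotides within the knt kanamycin-resistance gene on pET-22b(+). Six replicate transformations grew overnight at 37°C or 30°C on LB agar with or without 25 μg/mL kanamycin, also containing 100 μg/mL carbenicillin, 50 μM IPTG and 0.2% rhamnose, and pooled colonies were amplicon-sequenced on an Illumina HiSeq 2500.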

± gives the uncertainty stated by the source.

For the sequence GUCAAGCAAUAUUACGAGUU, the “self-splicing fitness (ln)” value (30 °C) is -3.15 ± 0.15 and the “self-splicing fitness (ln)” value (37 °C) is -0.638 ± 0.093.

Consider GGAGAGCAAUAUUACGUGGU, for which the “self-splicing fitness (ln)” value (30 °C) is -3.28 ± 0.16 and the “self-splicing fitness (ln)” value (37 °C) was -3.01 ± 0.26.

In the case of CUCGAGCAAUAUUACGUGCC, under “30 °C”, the “self-splicing fitness (ln)” value was -3.35 ± 0.35.

CCGUAGCAAUAUUACGAUGC: the “self-splicing fitness (ln)” value by setting is: (30 °C) -4.08 ± 0.36; (37 °C) -1.39 ± 0.23.

As to UCCGAGCAAUAUUACGAGUA, the “self-splicing fitness (ln)” value (30 °C) is -1.98 ± 0.16 and the “self-splicing fitness (ln)” value (37 °C) is -1.1 ± 0.12.

AAGGAGCAAUAUUACGUUUC: the “self-splicing fitness (ln)” value (30 °C) was -3.26 ± 0.43 and the “self-splicing fitness (ln)” value (37 °C) is -2.26 ± 0.43.

Regarding AAUUAGCAAUAUUACGACAU, the “self-splicing fitness (ln)” value is, setting by setting: (30 °C) -0.0913 ± 0.013; (37 °C) -0.0165 ± 0.033.

CACUAGCAAUAUUACGGGUA: the “self-splicing fitness (ln)” value was -0.856 ± 0.057 (30 °C) and -0.188 ± 0.064 (37 °C).

Turning to UCACAGCAAUAUUACGAUAG, the “self-splicing fitness (ln)” value (30 °C) was -2.75 ± 0.14 and the “self-splicing fitness (ln)” value (37 °C) is -1.22 ± 0.12.

Regarding GUGUAGCAAUAUUACGAGGG, the “self-splicing fitness (ln)” value is -3.38 ± 0.44 (30 °C) and -2.99 ± 0.47 (37 °C).

Regarding AUAGAGCAAUAUUACGAUCG, the “self-splicing fitness (ln)” value is -1.08 ± 0.14 (30 °C) and -1.4 ± 0.27 (37 °C).

In the case of AAGUAGCAAUAUUACGAGUC, the “self-splicing fitness (ln)” value is, setting by setting: (30 °C) -2.53 ± 0.18; (37 °C) -2.47 ± 0.3.

With GAGCAGCAAUAUUACGCCUA, the “self-splicing fitness (ln)” value runs as follows: (30 °C) -0.758 ± 0.064; (37 °C) 0.0984 ± 0.085.

Turning to GCAAAGCAAUAUUACGGUGG, the “self-splicing fitness (ln)” value (30 °C) is -2.27 ± 0.12 and the “self-splicing fitness (ln)” value (37 °C) was -2.43 ± 0.19.

As for AGAGAGCAAUAUUACGACAC, the “self-splicing fitness (ln)” value (37 °C) is -1.4 ± 0.26.

CCAGAGCAAUAUUACGUGGA: the “self-splicing fitness (ln)” value reads like this: (30 °C) -4.15 ± 0.23; (37 °C) -2.03 ± 0.16.

In the case of AACUAGCAAUAUUACGUUUC, the “self-splicing fitness (ln)” value (30 °C) is -3.35 ± 0.18 and the “self-splicing fitness (ln)” value (37 °C) is -2.58 ± 0.25.

Take UGAUAGCAAUAUUACGAAGA: the “self-splicing fitness (ln)” value is, setting by setting: (30 °C) -2.56 ± 0.26; (37 °C) -1.97 ± 0.22.

In the case of GUGUAGCAAUAUUACGGGGG, the “self-splicing fitness (ln)” value runs as follows: (30 °C) -3.23 ± 0.41; (37 °C) -2.07 ± 0.43.

As to AUUCAGCAAUAUUACGUGCU, the “self-splicing fitness (ln)” value (30 °C) was -2.95 ± 0.2 and the “self-splicing fitness (ln)” value (37 °C) was -1.81 ± 0.3.

UCCUAGCAAUAUUACGGUCU: the “self-splicing fitness (ln)” value was -1.59 ± 0.06 (30 °C) and -0.444 ± 0.07 (37 °C).

For the sequence AAAGAGCAAUAUUACGCAAC, the “self-splicing fitness (ln)” value (30 °C) is -2.78 ± 0.26 and the “self-splicing fitness (ln)” value (37 °C) was -1.77 ± 0.42.

In the case of UUUCAGCAAUAUUACGAGAG, the “self-splicing fitness (ln)” value by setting is: (30 °C) -1.8 ± 0.069; (37 °C) -1.91 ± 0.088.

With UAUUAGCAAUAUUACGCUUA, the “self-splicing fitness (ln)” value reads like this: (30 °C) -1.05 ± 0.2; (37 °C) -0.89 ± 0.25.

In the case of CAGAAGCAAUAUUACGAUAC, the “self-splicing fitness (ln)” value (37 °C) is -1.81 ± 0.2.

Consider CCGGAGCAAUAUUACGAAGC, for which, where the note is “37 °C”, the “self-splicing fitness (ln)” value was -2.8 ± 0.36.

AUAAAGCAAUAUUACGAAAC: the “self-splicing fitness (ln)” value (30 °C) was -2.47 ± 0.19 and the “self-splicing fitness (ln)” value (37 °C) was -1.18 ± 0.32.

UGCGAGCAAUAUUACGUUAG: the “self-splicing fitness (ln)” value (30 °C) was -2.68 ± 0.27 and the “self-splicing fitness (ln)” value (37 °C) was -2.01 ± 0.33.

For the sequence AAAUAGCAAUAUUACGACAA, the “self-splicing fitness (ln)” value was -0.727 ± 0.1 (30 °C) and -0.284 ± 0.1 (37 °C).

On to GUAGAGCAAUAUUACGGCUG, for which the “self-splicing fitness (ln)” value (30 °C) was -1.04 ± 0.13 and the “self-splicing fitness (ln)” value (37 °C) was -0.584 ± 0.14.

Turning to GUUGAGCAAUAUUACGGAUA, the “self-splicing fitness (ln)” value runs as follows: (30 °C) -0.148 ± 0.24; (37 °C) -1.65 ± 0.45.

In the case of AUUCAGCAAUAUUACGAUCC, the “self-splicing fitness (ln)” value was -0.321 ± 0.19 (30 °C) and -0.287 ± 0.25 (37 °C).

Take GAGAAGCAAUAUUACGGGAU: the “self-splicing fitness (ln)” value runs as follows: (30 °C) -3.32 ± 0.16; (37 °C) -2.58 ± 0.2.

For CCUCAGCAAUAUUACGUGUC, the “self-splicing fitness (ln)” value by setting is: (30 °C) -3.35 ± 0.13; (37 °C) -2.48 ± 0.2.

Source of the values: the supplement of paper PMC7877785.
